Experimental data as given in patent US20040013647A1.

Biological target: 508F(Fv)-CBD (508 scFv mutant C96F fused to CBD) (Clostridium thermocellum) (UniProt Q06851)
Assay: competitive ELISA, soluble βAP(1-16) pre-incubated with 508F(Fv)-CBD before βAP coated wells

Substance: βAP(1-16), β-amyloid 1-16 amino acid peptide
- IC50: 1000 nM
